Assay results: patent US20100216191A1, “Method for Manufacturing a Modified Peptide” (PROCOMCURE BIOTECH GMBH, priority 2007, published 2010)

What was measured:
[1] = biological target: ClfB (clumping factor B of S. aureus, NCBI Protein GI 15925620) (Staphylococcus aureus), Q99R07; assay: cell-based or functional assay
[2] = biological target: His-tagged recombinant ClfB protein (Staphylococcus aureus); assay: pull-down competition on His-tagged ClfB beads, anti-GST Western blot, densitometry; competes with GST-tagged Frag2-CDS

Sequence of ClfB (clumping factor B of S. aureus, NCBI Protein GI 15925620) (Staphylococcus aureus), Q99R07 (Q99R07 45-841 limits assumed): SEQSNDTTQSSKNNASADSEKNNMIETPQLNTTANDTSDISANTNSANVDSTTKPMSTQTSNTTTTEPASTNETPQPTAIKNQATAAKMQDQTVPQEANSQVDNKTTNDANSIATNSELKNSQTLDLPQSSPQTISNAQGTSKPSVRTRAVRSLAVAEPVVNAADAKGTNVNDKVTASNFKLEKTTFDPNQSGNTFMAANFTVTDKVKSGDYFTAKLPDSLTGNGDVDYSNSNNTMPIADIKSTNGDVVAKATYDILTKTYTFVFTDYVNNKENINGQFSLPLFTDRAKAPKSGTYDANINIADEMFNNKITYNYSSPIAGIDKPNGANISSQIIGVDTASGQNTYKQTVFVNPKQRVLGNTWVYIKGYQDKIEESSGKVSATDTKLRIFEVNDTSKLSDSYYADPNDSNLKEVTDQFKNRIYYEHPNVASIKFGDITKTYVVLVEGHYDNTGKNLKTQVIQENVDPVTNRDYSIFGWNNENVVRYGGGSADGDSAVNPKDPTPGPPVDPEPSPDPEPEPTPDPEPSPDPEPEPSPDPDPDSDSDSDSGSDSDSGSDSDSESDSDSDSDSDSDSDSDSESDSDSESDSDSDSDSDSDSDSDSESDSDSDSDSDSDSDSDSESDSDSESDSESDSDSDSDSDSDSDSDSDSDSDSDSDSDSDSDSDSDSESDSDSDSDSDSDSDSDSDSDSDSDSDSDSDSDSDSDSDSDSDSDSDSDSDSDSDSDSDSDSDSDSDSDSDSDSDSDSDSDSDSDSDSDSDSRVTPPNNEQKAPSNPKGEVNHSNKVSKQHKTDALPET

Row | Binder | beta-galactosidase expression (X-Gal beta galactosidase overlay assay, Y2H) (% more than the original binder) [1] | percent inhibition of the binding of GST-tagged keratin fragment to ClfB-protein at 1 µM peptide [2]
1 | YSLGSSFGSGAGSSSSSRTSPSRAVVVK (modifications not checked) [more stronger binder (peptide SEQ ID NO 73)] | > 100 | –
2 | SYSLGSSFGSGAGSSSFSRTS (modifications not checked) [IPEP-21SA (synthetic peptide of 21 amino acids)] | – | 40%
3 | YSLGSSFGSGAGSSSLGRTSSSRAVVVK (modifications not checked) [stronger binder (peptide SEQ ID NO 97)] | > 50 | –
